Values of other authors, collected in paper PMC7194015, “Proline-Rich Antimicrobial Peptides in Medicinal Maggots of Lucilia sericata Interact With Bacterial DnaK But Do Not Inhibit Protein Synthesis” (Frontiers in Pharmacology, 2020).

Molecular target: DnaK (Escherichia coli) (UniProt P0A6Y8)
Sequence (P0A6Y8 2-638): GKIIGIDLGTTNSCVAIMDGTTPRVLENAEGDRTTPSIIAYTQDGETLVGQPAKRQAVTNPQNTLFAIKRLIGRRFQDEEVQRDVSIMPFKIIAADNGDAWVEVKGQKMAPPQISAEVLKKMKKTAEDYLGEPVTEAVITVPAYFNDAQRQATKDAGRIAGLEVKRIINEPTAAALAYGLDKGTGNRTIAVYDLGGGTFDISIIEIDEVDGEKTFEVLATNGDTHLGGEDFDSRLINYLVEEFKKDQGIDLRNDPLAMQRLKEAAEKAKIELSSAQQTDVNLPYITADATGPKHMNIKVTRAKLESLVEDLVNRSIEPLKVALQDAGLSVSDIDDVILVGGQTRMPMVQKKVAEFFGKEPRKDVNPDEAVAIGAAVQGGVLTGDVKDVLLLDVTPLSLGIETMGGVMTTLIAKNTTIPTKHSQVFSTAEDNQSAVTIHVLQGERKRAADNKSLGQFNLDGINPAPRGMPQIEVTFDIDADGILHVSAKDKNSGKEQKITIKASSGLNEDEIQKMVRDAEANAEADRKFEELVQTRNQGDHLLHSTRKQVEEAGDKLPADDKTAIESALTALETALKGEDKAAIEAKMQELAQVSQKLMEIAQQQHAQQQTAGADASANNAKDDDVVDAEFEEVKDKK

Sequence of abaecin (P81463 whole entry): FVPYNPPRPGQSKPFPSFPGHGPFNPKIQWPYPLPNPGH

Substance: abaecin (from UniProt P81463)
- Kd: 0.1 µM
